Substitutions are numbered along the chain they refer to.
B1: SRP1848-F04 (antibody, V domains shown)
VH: EVQLVESGGGLVQPGGSLRLSCAASGFNISNYSIHWVRQAPGKGLEWVGEIYPIDGITDYADSVKGRFTISADTSKNTAYLQMNSLRAEDTAVYYCARGSWFWRSGYGYYLDYWGQGTLVTVSS
VL: not shown
notes: HC variant paired with trastuzumab LC, cell-free expressed, HIS- and FLAG-tagged; also called Antibody 39
B2: SRP1848-B11 (antibody, V domains shown)
VH: B1 VH with S30G, Y32N, E50D, Y52S, I57F, F102S, S105A
VL: not shown
notes: HC variant paired with trastuzumab LC, cell-free expressed, HIS- and FLAG-tagged; also called Antibody 17
B3: SRP1848-A08 (antibody, V domains shown)
VH: B1 VH with F27S, S30R, N31K, Y32H, E50S, I54N, I57T, S105A
VL: not shown
notes: HC variant paired with trastuzumab LC, cell-free expressed, HIS- and FLAG-tagged; also called Antibody 6
B4: SRP1848-B05 (antibody, V domains shown)
VH: B1 VH with S33Y, E50G, Y52S, I57Y, V64M, N84S, R104Q
VL: not shown
notes: HC variant paired with trastuzumab LC, cell-free expressed, HIS- and FLAG-tagged; also called Antibody 12
B5: SRP1848-B01 (antibody, V domains shown)
VH: B1 VH with S30R, I54V, S100F, F102S, R104P, G108S, Y110F
VL: not shown
notes: HC variant paired with trastuzumab LC, cell-free expressed, HIS- and FLAG-tagged; also called Antibody 9
B6: SRP1848-A07 (antibody, V domains shown)
VH: B1 VH with S30G, N31Y, Y32H, Y52F, I54V, I57T, Q82H, S100F, F102A
VL: not shown
notes: HC variant paired with trastuzumab LC, cell-free expressed, HIS- and FLAG-tagged; also called Antibody 5
B7: SRP1848-A04 (antibody, V domains shown)
VH: B1 VH with S30D, N31Q, Y32S, E50V, I54V, I57T, S100A, F102S, L111I
VL: not shown
notes: HC variant paired with trastuzumab LC, cell-free expressed, HIS- and FLAG-tagged; also called Antibody 3
B8: SRP1848-C01 (antibody, V domains shown)
VH: EVQLVESGGGLVQPGGSLRLSCAASGFNIGNSYIHWVRQAPGKGLEWVGGVTPNDGYTDYADSVKGRFTISADTSKNTTYLQMNSLRAEDTAVYYCARGSWFWRAGYGYYLDYWGQGALVTVSS
VL: not shown
notes: HC variant paired with trastuzumab LC, cell-free expressed, HIS- and FLAG-tagged; also called Antibody 18
B9: SRP1848-A06 (antibody, V domains shown)
VH: B8 VH with V51I, N54I, Y57N, T79A, S100A, F102S, A105S, L111I, A118T
VL: not shown
notes: HC variant paired with trastuzumab LC, cell-free expressed, HIS- and FLAG-tagged; also called Antibody 4
B10: SRP1848-B04 (antibody, V domains shown)
VH: B1 VH with G26S, Y32H, I54V, S100R, W101Y, F102S, S105A, G108S
VL: not shown
notes: HC variant paired with trastuzumab LC, cell-free expressed, HIS- and FLAG-tagged; also called Antibody 11
B11: SRP1848-C03 (antibody, V domains shown)
VH: B1 VH with S30G, N31V, I57N, F102A, G108S
VL: not shown
notes: HC variant paired with trastuzumab LC, cell-free expressed, HIS- and FLAG-tagged; also called Antibody 19
B12: SRP1848-B09 (antibody, V domains shown)
VH: EVQLVESGGGLVQPGGSLRLSCAAGGFNITNYYIHWVRQAPGKGLEWVGGITPVDGYTDYADRVKGRFTISADTSKNTAYLQMNSLRAEDTAVYYCARGAWSWRSGYGYYMDYWGQGTLVTVSS
VL: not shown
notes: HC variant paired with trastuzumab LC, cell-free expressed, HIS- and FLAG-tagged; also called Antibody 15
B13: SRP1848-B06 (antibody, V domains shown)
VH: B12 VH with G25S, T30S, V54I, R63S, A100F, R104P, M111Q
VL: not shown
notes: HC variant paired with trastuzumab LC, cell-free expressed, HIS- and FLAG-tagged; also called Antibody 13
B14: SRP1848-A09 (antibody, V domains shown)
VH: B1 VH with S30R, N31K, Y32Q, E50S, Y52F, I54N, I57T, M83V, Y110F, D112E
VL: not shown
notes: HC variant paired with trastuzumab LC, cell-free expressed, HIS- and FLAG-tagged; also called Antibody 7
B15: SRP1848-B03 (antibody, V domains shown)
VH: B1 VH with N31M, Y32K, S33Y, E50G, Y52T, I57M, F102S, R104P, G108S
VL: not shown
notes: HC variant paired with trastuzumab LC, cell-free expressed, HIS- and FLAG-tagged; also called Antibody 10
B16: SRP1848-A10 (antibody, V domains shown)
VH: B1 VH with S30R, N31K, V37A, E50D, Y52F, G56D, F102S, R104P, Y107H, G108S
VL: not shown
notes: HC variant paired with trastuzumab LC, cell-free expressed, HIS- and FLAG-tagged; also called Antibody 8
B17: SRP1848-B07 (antibody, V domains shown)
VH: EVQLVESGGGLVQPGGSLRLSCAASGFNISRFYIHWVRQAPGKGLEWVGGISPYDGFTDYADSVKGRFTISADTSKNTAYLQMNSLRAEDTAVYYCARGSWSWPAGYGYYQDYWGQGTLVTVSS
VL: not shown
notes: HC variant paired with trastuzumab LC, cell-free expressed, HIS- and FLAG-tagged; also called Antibody 14
B18: SRP1848-B10 (antibody, V domains shown)
VH: B1 VH with I29T, S30T, N31T, Y32K, I54R, S100G, F102H, G108S
VL: not shown
notes: HC variant paired with trastuzumab LC, cell-free expressed, HIS- and FLAG-tagged; also called Antibody 16
B19: SRP1848-C04 (antibody, V domains shown)
VH: B1 VH with S30R, N31H, I54G, D55P, I57N, W101L, F102S, S105A
VL: not shown
notes: HC variant paired with trastuzumab LC, cell-free expressed, HIS- and FLAG-tagged; also called Antibody 20

Biological target: T1, human folate receptor alpha (hFOLR1) (human, UniProt P15328 25-234)
Test: cell-based or functional assay

T1 sequence (P15328 25-234 limits assumed): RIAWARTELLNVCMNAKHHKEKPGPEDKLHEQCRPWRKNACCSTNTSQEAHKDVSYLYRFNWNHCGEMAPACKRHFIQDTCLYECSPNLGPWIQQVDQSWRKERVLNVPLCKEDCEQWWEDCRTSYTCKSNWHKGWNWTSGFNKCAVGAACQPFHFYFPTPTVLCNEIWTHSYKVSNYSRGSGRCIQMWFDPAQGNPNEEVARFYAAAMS

Binder | Igrov, 2° Antibody Cell Killing, Nb-SC239: EC50 [nM] | Igrov, 2° Antibody Cell Killing, Nb-SC239: Span [%] | KB, 2° Antibody Cell Killing, Nb-239: EC50 [nM] | KB, 2° Antibody Cell Killing, Nb-239: Span [%]
B1 | 0.015 | 73 | 0.096 | 93
B2 | 0.026 | 74 | 0.058 | 93
B3 | 0.013 | 65 | 0.039 | 93
B4 | 0.04 | 72 | 0.065 | 94
B5 | 0.031 | 82 | 0.064 | 95
B6 | 0.029 | 68 | 0.062 | 95
B7 | 0.015 | 64 | 0.052 | 92
B8 | 0.023 | 68 |  | 90
B9 |  | 72 | 0.046 | 93
B10 | 0.018 | 70 | 0.035 | 94
B11 | 0.035 | 72 | 0.074 | 93
B12 | 0.027 | 74 | 0.073 | 97
B13 | 0.022 | 72 | 0.058 | 95
B14 | 0.026 | 71 |  | 93
B15 | 0.028 | 66 | 0.05 | 94
B16 | 0.027 | 75 | 0.033 | 96
B17 | 0.038 | 73 | 0.079 | 96
B18 |  | 71 | 0.04 | 97
B19 | 0.016 | 68 | 0.006 | 94

Biological target: T1, human folate receptor alpha (hFOLR1)
Test: FACS, CHO-hFOLR1 cells;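 note: flow cytometry of serially diluted antibodies binding CHO cells stably expressing the receptor, 60 min on ice, mixed with dye-tagged parental CHO as background control, one-site specific fit with Hill slope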

Bmax (MFI) | Kd [nM] | Binder
26900 | 0.73 | B1
28400 | 0.56 | B2
28600 | 0.62 | B3
24500 | 0.65 | B4
26600 | 1.06 | B5
29200 | 0.61 | B6
26800 | 0.43 | B7
28500 | 0.66 | B8
24500 | 0.47 | B9
27800 | 0.72 | B10
29100 | 0.51 | B11
25200 | 0.46 | B12
25100 | 0.67 | B13
28900 | 0.61 | B14
26300 | 0.82 | B15
27100 | 0.66 | B16
25600 | 0.66 | B17
28200 | 0.83 | B18
26300 | 0.44 | B19

Biological target: T2, cynomolgus monkey folate receptor alpha (cynomolgus monkey, UniProt P15328 25-234 (human entry))
T2 construct: Expressed on the surface of stably transfected CHO cells; also called cyno FolR1; CHO-cyno FolR1
Test: FACS, CHO-cFOLR1 cells

T2 sequence (P15328 other isoform, or with tags, fused parts or gaps limits assumed): as the sequence (P15328 25-234 limits assumed) above, with I2T, W4R, R37K, Q117R, A146P, H171Y counted along it

Bmax (MFI) | Kd [nM] | Binder
26400 | 0.55 | B1
22900 | 0.34 | B2
26200 | 0.45 | B3
21900 | 0.64 | B4
23900 | 0.83 | B5
23600 | 0.43 | B6
23100 | 0.3 | B7
25900 | 0.6 | B8
20200 | 0.3 | B9
27800 | 0.65 | B10
25100 | 0.5 | B11
25200 | 0.99 | B12
26800 | 1.21 | B13
20200 | 0.31 | B14
17200 | 0.41 | B15
14800 | 0.47 | B16
25500 | 1.05 | B17
21300 | 0.44 | B18
22000 | 0.86 | B19

Biological target: T3, murine folate receptor alpha (mouse, UniProt P35846 25-232)
T3 construct: Expressed on the surface of stably transfected CHO cells; also called mouse FolR1; CHO-mouse FolR1
Test: FACS, CHO-mFOLR1 cells;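 note: flow cytometry binding of serially diluted test antibodies to transfected CHO cells on ice, mean fluorescence intensity, parental CHO cells give background, Kd from one-site specific binding fit with Hill slope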

T3 sequence (P35846 25-232 limits assumed): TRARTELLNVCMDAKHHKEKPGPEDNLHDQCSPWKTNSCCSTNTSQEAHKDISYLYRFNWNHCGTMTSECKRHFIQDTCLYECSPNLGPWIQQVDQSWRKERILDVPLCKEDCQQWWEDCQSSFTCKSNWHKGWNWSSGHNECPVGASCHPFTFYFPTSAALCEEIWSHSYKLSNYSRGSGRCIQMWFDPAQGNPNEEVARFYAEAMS

Bmax (MFI) | Kd [nM] | binding result | Binder
2740 | 11 |  | B1
1630 | 3.9 |  | B2
3200 | 2.5 |  | B3
 |  | no binding | B4
3400 | 16.4 |  | B5
9650 | 0.9 |  | B6
3890 | 2 |  | B7
1370 | 26 |  | B8
2770 | 2.4 |  | B9
2190 | 17.9 |  | B10
3310 | 3 |  | B11
1420 | 78 |  | B12
 |  | no binding | B13
7990 | 1 |  | B14
2720 | 6.4 |  | B15
10200 | 1.2 |  | B16
 |  | no binding | B17
2460 | 7.3 |  | B18
2510 | 62 |  | B19
